Measurements as given in the supplement of paper PMC10567573.

B1: MTMR15 (parent)
chain: FSPDFTLRNTLKSTSEDSLVKQEC
B2: RHOBTB3 (parent)
chain: DSCCPAGIFQAMCLLICAEMYQVS
B3: RPS21 (parent)
chain: AEVSWEPGRREGCDICAGKAGCPI

Variants of: B1
Experiment: protein stability index of a GFP-peptide fusion (GPS, HEK-293T) (PSI 1-6); higher = more stable
Conditions: c terminus: a fixed tail appended
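Note: lentivirally expressed fusions sorted by FACS into six bins by GFP to DsRed ratio, PSI derived from sequencing read proportions per bin multiplied by bin number.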

Protein stability index: each site, then its substitutions
C24: P 2.75, Q 2.87, R 2.34, W 2.18, K 1.4, Y 3.07, V 2.03, I 1.67, M 2.74, N 2.16, S 1.85, G 2.39, H 1.85, T 1.98, L 2.03

Variants of: B2
Experiment: as above
Conditions: c terminus: a fixed tail appended

Protein stability index, by site and new letter:
D1: M 3.85, I 2.69, N 3.73, E 2.3, A 3.58

Variants of: B3
Experiment: as above
Conditions: c terminus: a fixed tail appended

Protein stability index: each site, then its substitutions
E2: R 1.99, G 3.38, F 1.23, T 2.84, S 2.94, D 3.79, N 3.51, Y 2.68, M 2.83, L 3.09, Q 2.36, H 2.02, C 2.91, K 1.92
E6: P 3, R 3.04, Y 1.76, M 2.6, H 5.82, F 2.14, N 3.49, V 2.66, G 2.36, C 2.23, I 2, T 2.79, Q 2.78, W 1.56
I15: S 4.14, M 3.42, T 3.83, G 4.06, E 4.25, W 3.74, V 3.53, R 2.96, F 2.08, Y 3.21, L 2.43, H 4.36, C 4.43, Q 3.46
P7: I 2.97, Y 2.9, H 3.92, R 2.53, C 2.69, V 2.23, Q 2.6, F 2.21, E 4, S 2.77
A1: D 3.94, K 2.67, G 3.57, P 3.8, R 3.51, E 3.49, F 1.94, Y 2.76, C 2.9, V 1.36, H 2.65, M 3.37, S 2.71
C16: Y 3.04, K 3.86, Q 4.37, D 3.44, V 3.67, R 4.22, I 3.69, T 2.97, L 4, W 1.6, F 3.58
V3: E 4.58, G 4, C 3.78, P 3.87, I 2.23, H 4.16, M 1.9, F 2.68, Q 3.17, T 3.66, W 3.27, A 4.16, D 4, S 3.34, R 3.01, K 4, Y 3.54
E11: S 2.96, T 2.87, H 3.53, L 2.46, F 4.96, W 2.13, K 2.6, N 2.55, G 1.99, C 3.22, D 3.37, P 2.92, I 2.56, A 1.95, Y 2.69
D14: N 2.35, H 2.5, I 3.65, M 2.18, K 3.66, A 2.13, V 3.22
S4: E 4.2, G 3.64, N 4.34, L 3.81, F 2.45, D 3.41, K 3.77, C 3.24, T 2.54, M 1.58, Y 2.92, V 3.23, A 4.39, W 2.79
G18: H 2.97, W 2.74, S 3.63, P 3.47, I 2.24, D 4.25, C 2.79, F 2.75, K 2.7, M 3.06, T 3.28, A 3.08, Y 2.66, N 3.63
A17: R 2.97, T 3.58, H 3.66, L 2.01, V 3.14, N 3.45, M 2.29, S 2.46, Y 3.57, G 3.38, C 3.11, P 3.72, E 3.78, F 2.3, I 2.59
K19: F 2.15, D 4.29, I 3.79, W 1.28, E 4.29, H 2.13, G 3.99, L 2.3, Y 2.24, T 2.62, N 2, Q 2.97, M 2.48
W5: L 3.12, K 4.84, D 4.85, T 4.04, F 3.53, R 3.04, C 4.24, V 4.44, Y 2.91, I 3.7, P 5.67, E 4.64, S 4.06, M 3.06, Q 4.19
P23: W 1.8, D 3.85, V 2.18, G 3.82, T 2.27, A 2.32, N 2.62, I 3.05, M 1.48, Q 2.68, L 2.92, E 3.1, Y 1.73, K 3.04, F 2.04, H 2.61
I24: A 4.48, C 5.83, V 3.19, H 5.43, T 3.96, E 4.76, G 3.41, Y 2.54, S 3.79
R10: Q 3.09, N 3.47, S 3.14, P 1.9, F 2.46, L 2.84, C 3.8, H 4.11, I 2.91, K 3.32, T 3.2, Y 4.13, G 2.52, E 2.81, A 3.49, V 2.69
C22: N 2.96, P 3.34, K 2.99, Y 2.2, E 3.88, H 2.9, D 3.66, M 3.11, R 2.32, F 2.28, W 2.82
C13: T 4.38, M 4.01, H 4.27, G 3.88, E 4.21, Y 3.84, R 4.04, V 5.29, A 2.49, D 4.06, F 3.97
G12: K 2.5, V 2.63, P 3.21, W 4.38, I 2.52, D 4.16, C 3.29, M 4.41, T 3.67, Q 2.45, E 3.86, N 3.07
A20: F 3.1, C 4.67, N 3.26, E 2.36, P 3.34, I 2.53, R 2.26, S 3.69, L 2.48, K 1.5, V 2.59, D 3.5, Y 2.96, T 3.75, H 3.25
R9: A 3.95, P 3.26, D 4.04, Q 3.75, T 3.67, I 3.14, Y 3.1, W 2.67, L 3.49, M 3.02, N 3.35, F 3.89
G8: C 3.67, F 2.46, P 3.24, M 2.59, I 2.78, H 2.54, Q 3.99, K 3.03, W 2.01, R 2.77, Y 1.74, T 2.72, N 3.41
G21: R 2.75, M 3.01, Y 3.56, Q 4.18, A 3.26, L 3.38, I 2.67, S 2.59, P 3.35, N 2.82, D 3.59, C 2.84, F 2.13
